Experimental data: article PMC9250616 (Angiogenesis, 2022)

Experiments:
Collagen I = experiment: ELISA
Collagen VI = experiment: ELISA
Chain of Collagen VI (P12109 20-1028, chain 1 of 3): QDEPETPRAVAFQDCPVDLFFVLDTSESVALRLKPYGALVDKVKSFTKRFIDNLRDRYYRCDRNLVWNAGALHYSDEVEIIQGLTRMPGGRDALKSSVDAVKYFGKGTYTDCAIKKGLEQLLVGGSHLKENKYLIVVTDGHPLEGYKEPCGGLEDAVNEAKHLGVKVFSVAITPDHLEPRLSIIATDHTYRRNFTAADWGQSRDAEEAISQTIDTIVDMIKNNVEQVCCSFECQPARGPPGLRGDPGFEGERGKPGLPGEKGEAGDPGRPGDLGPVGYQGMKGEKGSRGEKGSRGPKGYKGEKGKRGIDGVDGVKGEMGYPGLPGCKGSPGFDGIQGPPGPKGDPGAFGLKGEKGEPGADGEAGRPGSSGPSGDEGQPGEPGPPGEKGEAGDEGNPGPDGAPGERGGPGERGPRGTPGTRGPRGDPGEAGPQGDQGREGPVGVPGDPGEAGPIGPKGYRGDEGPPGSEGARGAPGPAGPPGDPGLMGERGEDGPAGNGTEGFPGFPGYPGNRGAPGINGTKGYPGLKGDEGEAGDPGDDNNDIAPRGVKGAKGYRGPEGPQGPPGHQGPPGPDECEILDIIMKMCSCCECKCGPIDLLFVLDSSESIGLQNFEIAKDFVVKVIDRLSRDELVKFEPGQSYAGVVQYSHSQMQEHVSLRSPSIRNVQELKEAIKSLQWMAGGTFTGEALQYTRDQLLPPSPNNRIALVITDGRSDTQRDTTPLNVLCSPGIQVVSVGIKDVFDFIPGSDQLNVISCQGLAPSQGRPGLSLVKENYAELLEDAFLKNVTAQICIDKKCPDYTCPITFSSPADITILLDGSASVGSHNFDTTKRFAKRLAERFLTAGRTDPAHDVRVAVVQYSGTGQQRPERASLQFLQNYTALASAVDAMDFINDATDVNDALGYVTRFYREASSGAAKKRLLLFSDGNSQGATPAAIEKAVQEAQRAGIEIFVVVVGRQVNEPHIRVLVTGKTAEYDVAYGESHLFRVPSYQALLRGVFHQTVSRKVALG
Chain of Collagen VI (P12110 21-1019, chain 2 of 3, further chain): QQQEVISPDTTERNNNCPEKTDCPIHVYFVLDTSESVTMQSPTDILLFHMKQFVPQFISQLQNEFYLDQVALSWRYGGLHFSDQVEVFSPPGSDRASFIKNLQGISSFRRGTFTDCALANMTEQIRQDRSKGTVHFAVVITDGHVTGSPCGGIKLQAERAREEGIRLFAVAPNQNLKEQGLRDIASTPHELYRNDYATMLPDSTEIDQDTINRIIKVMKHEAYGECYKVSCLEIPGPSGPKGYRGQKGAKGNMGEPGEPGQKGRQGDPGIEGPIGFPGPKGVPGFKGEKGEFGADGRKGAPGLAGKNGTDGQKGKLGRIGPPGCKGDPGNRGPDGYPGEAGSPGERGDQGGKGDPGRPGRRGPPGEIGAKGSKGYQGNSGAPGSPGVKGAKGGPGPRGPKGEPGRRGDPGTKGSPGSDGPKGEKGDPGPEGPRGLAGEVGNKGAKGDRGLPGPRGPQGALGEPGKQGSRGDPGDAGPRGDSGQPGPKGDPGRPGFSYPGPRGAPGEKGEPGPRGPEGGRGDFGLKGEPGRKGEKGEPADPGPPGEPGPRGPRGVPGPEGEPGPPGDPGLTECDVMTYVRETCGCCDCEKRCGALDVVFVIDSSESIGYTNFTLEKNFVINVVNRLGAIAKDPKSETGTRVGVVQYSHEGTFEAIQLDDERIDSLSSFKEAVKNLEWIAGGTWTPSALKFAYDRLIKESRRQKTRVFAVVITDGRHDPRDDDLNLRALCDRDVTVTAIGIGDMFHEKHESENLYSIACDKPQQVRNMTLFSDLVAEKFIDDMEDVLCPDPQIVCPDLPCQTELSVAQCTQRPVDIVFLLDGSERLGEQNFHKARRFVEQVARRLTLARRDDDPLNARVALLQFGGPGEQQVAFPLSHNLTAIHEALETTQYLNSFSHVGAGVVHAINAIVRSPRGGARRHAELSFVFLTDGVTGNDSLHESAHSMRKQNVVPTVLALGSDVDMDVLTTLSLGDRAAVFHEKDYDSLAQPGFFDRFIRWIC
Chain of Collagen VI (P12111 26-3177, chain 3 of 3, further chain): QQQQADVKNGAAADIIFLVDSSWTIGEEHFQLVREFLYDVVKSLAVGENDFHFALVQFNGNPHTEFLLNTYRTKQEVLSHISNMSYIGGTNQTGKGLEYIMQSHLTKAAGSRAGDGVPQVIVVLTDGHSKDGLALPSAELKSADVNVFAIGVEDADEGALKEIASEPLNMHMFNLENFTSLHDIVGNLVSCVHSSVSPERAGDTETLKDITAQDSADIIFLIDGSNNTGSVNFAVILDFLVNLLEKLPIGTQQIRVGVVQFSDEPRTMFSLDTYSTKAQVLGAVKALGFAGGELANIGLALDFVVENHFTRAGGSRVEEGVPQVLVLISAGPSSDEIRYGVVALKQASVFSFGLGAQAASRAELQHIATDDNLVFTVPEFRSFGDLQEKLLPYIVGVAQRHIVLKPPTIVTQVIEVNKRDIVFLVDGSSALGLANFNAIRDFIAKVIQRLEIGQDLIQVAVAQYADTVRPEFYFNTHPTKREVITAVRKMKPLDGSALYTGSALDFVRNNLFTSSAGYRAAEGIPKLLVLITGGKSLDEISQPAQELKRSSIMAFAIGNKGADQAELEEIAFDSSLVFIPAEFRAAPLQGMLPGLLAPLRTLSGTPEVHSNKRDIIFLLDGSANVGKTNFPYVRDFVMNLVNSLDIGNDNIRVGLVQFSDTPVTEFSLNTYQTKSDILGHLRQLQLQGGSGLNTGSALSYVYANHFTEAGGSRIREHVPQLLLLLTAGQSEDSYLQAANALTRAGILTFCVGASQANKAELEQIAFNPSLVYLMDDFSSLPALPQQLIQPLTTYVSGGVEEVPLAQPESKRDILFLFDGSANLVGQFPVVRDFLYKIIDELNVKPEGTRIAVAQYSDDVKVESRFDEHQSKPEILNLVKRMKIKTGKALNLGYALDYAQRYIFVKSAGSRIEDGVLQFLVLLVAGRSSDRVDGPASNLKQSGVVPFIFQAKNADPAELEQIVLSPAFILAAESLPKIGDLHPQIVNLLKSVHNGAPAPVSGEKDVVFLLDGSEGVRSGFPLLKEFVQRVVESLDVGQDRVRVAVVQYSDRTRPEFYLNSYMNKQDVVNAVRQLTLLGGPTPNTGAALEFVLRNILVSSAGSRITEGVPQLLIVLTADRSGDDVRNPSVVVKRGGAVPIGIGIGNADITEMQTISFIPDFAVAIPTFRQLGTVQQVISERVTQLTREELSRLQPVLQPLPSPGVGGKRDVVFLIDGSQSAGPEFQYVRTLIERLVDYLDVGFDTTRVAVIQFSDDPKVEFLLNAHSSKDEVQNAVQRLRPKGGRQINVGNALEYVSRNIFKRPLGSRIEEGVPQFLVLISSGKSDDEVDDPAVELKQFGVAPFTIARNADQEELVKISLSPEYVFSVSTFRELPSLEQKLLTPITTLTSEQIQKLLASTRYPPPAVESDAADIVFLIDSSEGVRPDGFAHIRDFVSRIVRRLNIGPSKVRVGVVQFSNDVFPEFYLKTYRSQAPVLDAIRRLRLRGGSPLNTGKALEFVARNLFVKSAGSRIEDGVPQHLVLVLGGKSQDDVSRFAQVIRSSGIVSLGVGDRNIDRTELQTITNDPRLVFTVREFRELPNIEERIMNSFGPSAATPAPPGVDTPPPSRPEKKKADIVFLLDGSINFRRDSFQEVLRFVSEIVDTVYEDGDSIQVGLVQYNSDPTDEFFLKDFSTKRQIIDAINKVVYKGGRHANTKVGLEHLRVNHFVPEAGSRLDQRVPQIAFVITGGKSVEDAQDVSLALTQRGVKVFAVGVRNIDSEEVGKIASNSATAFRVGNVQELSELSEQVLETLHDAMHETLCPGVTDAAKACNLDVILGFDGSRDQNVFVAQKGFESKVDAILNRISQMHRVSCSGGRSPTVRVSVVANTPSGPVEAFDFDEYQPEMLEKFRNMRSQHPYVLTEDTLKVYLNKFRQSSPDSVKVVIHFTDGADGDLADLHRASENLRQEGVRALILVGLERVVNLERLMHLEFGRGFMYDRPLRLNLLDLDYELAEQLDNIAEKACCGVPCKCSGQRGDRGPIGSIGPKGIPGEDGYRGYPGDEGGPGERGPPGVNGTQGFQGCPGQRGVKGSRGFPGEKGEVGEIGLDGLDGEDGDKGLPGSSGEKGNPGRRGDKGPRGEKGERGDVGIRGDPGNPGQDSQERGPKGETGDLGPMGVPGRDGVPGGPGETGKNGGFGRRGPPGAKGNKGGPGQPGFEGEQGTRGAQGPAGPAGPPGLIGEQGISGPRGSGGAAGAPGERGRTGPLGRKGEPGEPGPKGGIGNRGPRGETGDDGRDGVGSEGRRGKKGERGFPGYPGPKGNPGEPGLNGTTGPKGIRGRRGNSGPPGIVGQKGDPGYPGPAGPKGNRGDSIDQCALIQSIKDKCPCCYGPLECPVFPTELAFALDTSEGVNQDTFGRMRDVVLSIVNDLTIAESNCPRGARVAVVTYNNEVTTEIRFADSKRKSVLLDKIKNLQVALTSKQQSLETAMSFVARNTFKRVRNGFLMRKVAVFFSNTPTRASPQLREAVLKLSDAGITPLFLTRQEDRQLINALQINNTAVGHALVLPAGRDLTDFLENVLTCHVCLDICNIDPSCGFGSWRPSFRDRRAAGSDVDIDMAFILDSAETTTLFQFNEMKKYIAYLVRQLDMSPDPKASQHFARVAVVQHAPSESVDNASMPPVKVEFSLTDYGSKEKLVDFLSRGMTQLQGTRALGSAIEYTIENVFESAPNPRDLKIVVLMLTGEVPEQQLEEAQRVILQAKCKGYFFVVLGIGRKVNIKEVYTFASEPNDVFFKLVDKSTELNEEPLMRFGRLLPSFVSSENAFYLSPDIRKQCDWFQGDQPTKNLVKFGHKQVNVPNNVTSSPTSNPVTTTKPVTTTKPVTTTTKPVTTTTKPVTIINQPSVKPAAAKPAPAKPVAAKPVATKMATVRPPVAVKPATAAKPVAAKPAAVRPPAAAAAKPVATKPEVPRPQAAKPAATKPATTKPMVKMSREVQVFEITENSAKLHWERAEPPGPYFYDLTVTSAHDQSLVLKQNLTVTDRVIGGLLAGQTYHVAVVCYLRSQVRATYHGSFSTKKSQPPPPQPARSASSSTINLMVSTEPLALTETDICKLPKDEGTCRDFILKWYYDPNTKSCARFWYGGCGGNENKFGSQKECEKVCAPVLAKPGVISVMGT

B1: biotinylated CMG2-AviTag construct (capillary morphogenesis gene 2, anthrax toxin receptor 2) (receptor)
chain: not shown
modifications: biotin (biotinylated CMG2-AviTag construct)
Work on B1 yielded a Kd (Collagen I) of 500 nM and a Kd (Collagen VI) of 800 nM.
